Data: US20260062491A1
Positions count from the first letter of the chain named.

B1: EPC10 (ligand, not shown: small tags and cut ends)
chain: GDQNPQIAAHVISEASSTTTSVLQWAEKGYYTMSNNLVTLENGKQLTVKRQGLYYIYAQVTFCSNREASSQAPFIASLCLKSPGRFERILLRAANTHSSAKHCGQQSIHLGGVFELQPGASVFVNVTDPSQVSHGTGFTSFGLFKL
B2: EPC7 (ligand, not shown: small tags and cut ends)
chain: B1 chain with T18K, S70G, H102R

Key:
[1] = biological target: CD40 on peripheral blood B cells (CD3- CD19+ cells of PBMC) (UniProt P25942); experiment: flow cytometry: PBMC stained with the secondary anti-His tag antibody alone (negative control); gate lymphoid, single, viable, CD3- CD19+ cells [panel B]
[2] = biological target: CD40 on peripheral blood B cells (CD3- CD19+ cells of PBMC) (UniProt P25942); experiment: flow cytometry: PBMC incubated with 0.043 uM His-tagged CD40L construct, secondary anti-His tag antibody; gate lymphoid, single, viable, CD3- CD19+ cells [panel B]

Row | Molecule | MFI [1] | MFI [2]
1 | Control (antibody) | 99 | 
2 | WT (ligand) |  | 1300
3 | B1 |  | 1180
4 | B2 |  | 1360
